Target: OsWRKY53 (Oryza sativa (rice), UniProt A7BEY7 1-487)
Assay: EMSA; unlabeled probe competitor at 10-, 50-, 100-fold also run (outcome only in gel); EMSA: room temperature, 20 min; binding buffer, salt and pH not stated; 6% native acrylamide gel, 0.5x TBE, 4 C, 110 V, 2 h
Details: protein: recombinant; tags: His; TF (pCold-TF vector); label: 5'-FAM on one strand; annealed with complementary oligo

OsWRKY53, sequence (A7BEY7 entry or part of it): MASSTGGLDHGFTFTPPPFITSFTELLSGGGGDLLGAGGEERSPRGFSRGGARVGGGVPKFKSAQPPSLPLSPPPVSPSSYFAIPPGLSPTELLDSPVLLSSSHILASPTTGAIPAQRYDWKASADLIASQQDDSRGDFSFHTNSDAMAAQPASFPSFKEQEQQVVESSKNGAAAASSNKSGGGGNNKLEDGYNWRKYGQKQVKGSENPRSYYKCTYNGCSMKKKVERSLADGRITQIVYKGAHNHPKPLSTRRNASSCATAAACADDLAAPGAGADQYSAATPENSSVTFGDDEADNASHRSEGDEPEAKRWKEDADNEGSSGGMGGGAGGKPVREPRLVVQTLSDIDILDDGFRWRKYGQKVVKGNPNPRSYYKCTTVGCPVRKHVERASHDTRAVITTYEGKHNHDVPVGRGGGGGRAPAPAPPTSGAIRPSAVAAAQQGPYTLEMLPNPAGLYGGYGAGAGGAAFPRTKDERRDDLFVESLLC

B1: OsABA8ox1 promoter W-box probe (dsDNA)
DNA 1: ACAGGTTGACCTTTGCAT
DNA 2: ATGCAAAGGTCAACCTGT
binding result: binds

Reference: PMC8828546, “OsWRKY53 Promotes Abscisic Acid Accumulation to Accelerate Leaf Senescence and Inhibit Seed Germination by Downregulating Abscisic Acid Catabolic Genes in Rice”
